# Data reported in patent US20260116991A1 (HAINAN SIMCERE ZAIMING PHARMACEUTICAL, published 2026).
# Positions count from the first letter of the chain named.
# B1: hAb001H1L1 (antibody, human IgG1, V domains shown)
# VH: EVQLVESGGGLVQPGGSLRLSCAASGFSFNTNAMNWVRQAPGKGLEWVGRIRSKSNNYATYYADSVKDRFTISRDDSKNSLYLQMNSLKTEDTAVYYCVRDGYYVLFAYWGQGTLVTVSS
# VL: DIVMTQTPLSLPVTPGEPASISCRFSQSIVNSNGNTYLEWFLQKPGQSPQLLIYKVSNRFSGVPDRFSGSGSGTDFTLKISRVEAEDVGVYYCFQGSHVPFTFGQGTKLEIK
# notes: Humanized F2.169.2; VH H1 + VL L1; expressed as human IgG1
# B2: hAb007LH2L1 (antibody, human IgG1, V domains shown)
# VH: EVQLVQSGAEVKKPGSSVKVSCKASGYTFTDYEMHWVRQAPGQGLEWMGTIDPETGNTAYNQKFKGRVTITADKSTSTAYMELSSLRSEDTAVYYCTRPYSLTYWGQGTLVTVSS
# VL: B1 VL with F25S, I29F, N31H, N35D, E39Q, F41Y, F101Y
# notes: Humanized F3.81.19; VH H2 + VL L1; expressed as human IgG1
# B3: hAb001H1L1a (antibody, human IgG1, V domains shown)
# VH: B1 VH
# VL: B1 VL with N33D
# notes: Humanized F2.169.2; VH H1 + VL L1a; expressed as human IgG1
# B4: hAb001H2L1 (antibody, human IgG1, V domains shown)
# VH: B1 VH with N79S
# VL: B1 VL
# notes: Humanized F2.169.2; VH H2 + VL L1; expressed as human IgG1
# B5: hAb001H1aL1 (antibody, human IgG1, V domains shown)
# VH: B1 VH with D68G
# VL: B1 VL
# notes: Humanized F2.169.2; VH H1a + VL L1; expressed as human IgG1
# B6: hAb001H1L1b (antibody, human IgG1, V domains shown)
# VH: B1 VH
# VL: B1 VL with G34A
# notes: Humanized F2.169.2; VH H1 + VL L1b; expressed as human IgG1
# B7: hAb001H2L1a (antibody, human IgG1, V domains shown)
# VH: B1 VH with N79S
# VL: B1 VL with N33D
# notes: Humanized F2.169.2; VH H2 + VL L1a; expressed as human IgG1
# B8: hAb001H1aL1a (antibody, human IgG1, V domains shown)
# VH: B1 VH with D68G
# VL: B1 VL with N33D
# notes: Humanized F2.169.2; VH H1a + VL L1a; expressed as human IgG1
# B9: hAb003LH1L1 (antibody, human IgG1, V domains shown)
# VH: B2 VH with T30S, N61T, K65M, G66D, P99G, L102F
# VL: B1 VL with F25S, S28N, N31H, E39Q, F41Y, Y54F
# notes: Humanized F2.154.1; VH H1 + VL L1; expressed as human IgG1
# B10: hAb001H2L1b (antibody, human IgG1, V domains shown)
# VH: B1 VH with N79S
# VL: B1 VL with G34A
# notes: Humanized F2.169.2; VH H2 + VL L1b; expressed as human IgG1
# B11: hAb001H1aL1b (antibody, human IgG1, V domains shown)
# VH: B1 VH with D68G
# VL: B1 VL with G34A
# notes: Humanized F2.169.2; VH H1a + VL L1b; expressed as human IgG1
# B12: F4.13.7 human-murine chimeric antibody (antibody, human IgG1, kappa, V domains shown)
# VH: QVQLQQPGAELVKPGASVKLSCKASGYTFTNNWVHWVKQRPGQGLEWTGMIHPDSGSTIYNEKFQSKATLTVDKSSSTAYMQLSSLTSEDSAVYYCARGYYDSSSYYAMDYWGQGTSVTVSS
# VL: NIQMTQTTSSLSASLGDRVTISCSASQGIFNYLNWYQQKPDGTVKLLIYYTSSLHSGVPSRFSGSGSGTDYSLTISNLEPEDIATYYCQQYSKLPWTFGGGTKLEIKR
# B13: F3.38.7 human-murine chimeric antibody (antibody, human IgG1, kappa, V domains shown)
# VH: QVQLQQSGAELVRPGASVKLSCKASGYTFTDYEIHWVKQTPVLGLEWIGAIDPKTGNTAYNQKFMGKATLTADKSSTTAYMDLRSLTSEDSAVYYCTRYFSFAYWGQGTLVTVSA
# VL: DVLMTQTPLSLPVSLGDQASISCRSSQTFVHSNGNTYLQWYLQKPGQSPKLLIYKVSNRFSGVPDRFSGSGSGTDFTLKISRVEAEDLGVYYCFQGSHVPYTFGSGTKLEIKR
# B14: F3.81.19 human-murine chimeric antibody (antibody, human IgG1, kappa, V domains shown)
# VH: QVQLQQSGAELVRPGASVKLSCKASGYTFTDYEMHWVKQTPVHGLEWIGTIDPETGNTAYNQKFKGKATLTADKSSSTAYMELRSLTSEDSAVYYCTRPYSLTYWGQGTLVTVSA
# VL: B13 VL with M4L, T28S, N35D
# B15: F4.21.16 human-murine chimeric antibody (antibody, human IgG1, kappa, V domains shown)
# VH: DVQLQESGPGLVKPSQSLSLTCSVTGYSITSGYYWNWIRQFPGNKLEWMGYISYDVTVNYNPSLKNRISITRDTSKNQFFLKLNSVTTEDTATYYCATITSVASMDHWGQGTSVTVSS
# VL: B13 VL with V2I, T28N, F29I, S32R, Q39E, I53L, V90I, V99F, Y101F
# B16: F4.18.4 human-murine chimeric antibody (antibody, human IgG1, kappa, V domains shown)
# VH: QVQLHQSGAEMAKPGASVNLSCKTSGFTFTDYGISWVKQRTRQGLEWIGDIYPRHINIYYNEKFKDKATLTADRSSSTAYMELRSMTSEDSAVYFCARRGTTGRGALDYWGQGTSLTVSS
# VL: DILLTQSPAILSVSPGERVSFSCRASQSIGTSIHWYQQRTNGSPRLLIKYAFESISGIPSRFGGSGSRTDFTLTINSVESEDIADYYCQQTYNWPYTFGGGTKLEIKR
# B17: F3.54.12 human-murine chimeric antibody (antibody, human IgG1, kappa, V domains shown)
# VH: B14 VH with T50A, N61I, A72T, P99F, L102Y, T103S, Y104H, L110T, V111L, A115S
# VL: DVVMTQTPLSLPVSLGDQASISCRSSQSLVHSNGNTYLHWYLQKPGQSPKLLIYKVSNRFSGVPDRFSGSSSGTDFTLKISRVEAEDLGVYFCSQNTHVPPTFGGGTKLEIKR
# B18: F4.26.1 human-murine chimeric antibody (antibody, human IgG1, kappa, V domains shown)
# VH: QVQLKQSGPGLVQPSQSLSITCTVSGFSLTSYGVHWVRQSPGKGLEWLGVIWSSGNTDYNAVLISRLSIKKDDSKSQVFFKMNSPQVDDSAIYYCGRNGGWLLRGFMDFWGQGTSVTVSS
# VL: B17 VL with V30L, K44R, P45S, K50N, S70G, S71G, V90I, N96S, P101W
# Target: T1, human GPC3 on CHO-K1-human GPC3 cells (CHOK1-hGPC3.2B5) (human, UniProt P51654 25-554)
# T1 construct: whole, on cells
# Experiment: FACS, CHOK1-hGPC3.2B5 cells;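 further: flow cytometry of humanized antibodies binding to the cells over one hour in the cold, read as cell mean fluorescence intensity, with EC50 obtained by curve fitting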
Binder,EC50,Max MFI
B1,0.313 nM,3400 MFI
B2,6.56 nM,6190 MFI
B3,3.65 nM,2360 MFI
B4,0.359 nM,3550 MFI
B5,0.269 nM,3270 MFI
B6,0.399 nM,3160 MFI
B7,6.17 nM,2550 MFI
B8,1.63 nM,2530 MFI
B9,1.42 nM,5220 MFI
B10,0.455 nM,3370 MFI
B11,0.325 nM,3070 MFI

# Target: biotinylated labeled human GPC3 protein (produced in-house) (human, UniProt P51654 25-559, limits assumed, biotinylated (Dojindo, Cat. No. LK03); sites not stated)
# Experiment: ELISA, biotinylated human GPC3 protein
Binder,OD450 at 0.0008 nM,OD450 at 0.004 nM,OD450 at 0.02 nM,OD450 at 0.11 nM,OD450 at 0.53 nM,OD450 at 2.67 nM,OD450 at 13.33 nM,OD450 at 66.66 nM
B1,0.162 OD450,0.341 OD450,0.926 OD450,2 OD450,2.64 OD450,2.67 OD450,2.72 OD450,2.74 OD450
B2,0.121 OD450,0.233 OD450,0.654 OD450,1.72 OD450,2.26 OD450,2.26 OD450,2.33 OD450,2.32 OD450
B3,0.114 OD450,0.157 OD450,0.477 OD450,1.43 OD450,2.39 OD450,2.5 OD450,2.6 OD450,2.63 OD450
B4,0.169 OD450,0.324 OD450,0.895 OD450,1.97 OD450,2.5 OD450,2.6 OD450,2.58 OD450,2.6 OD450
B5,0.184 OD450,0.327 OD450,0.874 OD450,1.85 OD450,2.33 OD450,2.42 OD450,2.54 OD450,2.67 OD450
B7,0.096 OD450,0.141 OD450,0.437 OD450,1.53 OD450,2.27 OD450,2.42 OD450,2.57 OD450,2.58 OD450
B9,0.16 OD450,0.427 OD450,1.19 OD450,2.15 OD450,2.5 OD450,2.47 OD450,2.57 OD450,2.49 OD450
B10,0.154 OD450,0.287 OD450,0.787 OD450,1.94 OD450,2.46 OD450,2.52 OD450,2.53 OD450,2.67 OD450
B11,0.174 OD450,0.298 OD450,0.809 OD450,1.93 OD450,2.5 OD450,2.62 OD450,2.72 OD450,2.76 OD450

# Target: T2, murine GPC3-his protein (Sino Biological, Cat. No. 50989-M08B) (murine, UniProt Q8CFZ4 25-558)
# T2 construct: Bought protein; also called murine GPC3 protein
# Experiment: ELISA, coated murine GPC3-His;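 further: antigen coated on plates at 1 µg/mL, test antibody bound for 2 h at 37 °C, detected with HRP-conjugated secondary antibody and TMB substrate after acid stop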
# T2 sequence (Q8CFZ4 25-558 limits assumed): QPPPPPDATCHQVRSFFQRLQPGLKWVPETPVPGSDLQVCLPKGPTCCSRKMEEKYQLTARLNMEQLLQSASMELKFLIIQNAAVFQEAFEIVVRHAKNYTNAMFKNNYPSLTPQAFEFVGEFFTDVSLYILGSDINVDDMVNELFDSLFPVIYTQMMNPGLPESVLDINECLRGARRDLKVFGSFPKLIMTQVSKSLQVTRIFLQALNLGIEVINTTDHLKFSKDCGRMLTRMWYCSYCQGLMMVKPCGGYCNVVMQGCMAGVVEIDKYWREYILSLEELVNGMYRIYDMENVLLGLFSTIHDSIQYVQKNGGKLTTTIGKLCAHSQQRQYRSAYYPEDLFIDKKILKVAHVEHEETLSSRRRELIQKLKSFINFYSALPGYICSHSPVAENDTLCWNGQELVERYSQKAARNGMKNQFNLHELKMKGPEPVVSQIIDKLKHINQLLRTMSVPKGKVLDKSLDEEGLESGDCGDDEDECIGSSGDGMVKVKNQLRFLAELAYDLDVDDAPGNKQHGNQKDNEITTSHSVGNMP
Binder,OD450 at 0.0001 nM antibody,OD450 at 0.001 nM antibody,OD450 at 0.01 nM antibody,OD450 at 0.1 nM antibody,OD450 at 1 nM antibody,OD450 at 10 nM antibody,OD450 at 100 nM antibody
B12,0.06 OD450 nm,0.11 OD450 nm,0.54 OD450 nm,2.12 OD450 nm,2.86 OD450 nm,2.88 OD450 nm,2.87 OD450 nm
B13,0.06 OD450 nm,0.06 OD450 nm,0.05 OD450 nm,0.04 OD450 nm,0.05 OD450 nm,0.06 OD450 nm,0.12 OD450 nm
B14,0.05 OD450 nm,0.05 OD450 nm,0.04 OD450 nm,0.04 OD450 nm,0.05 OD450 nm,0.05 OD450 nm,0.1 OD450 nm
B15,0.05 OD450 nm,0.05 OD450 nm,0.04 OD450 nm,0.09 OD450 nm,0.05 OD450 nm,0.05 OD450 nm,0.08 OD450 nm
B16,0.18 OD450 nm,0.15 OD450 nm,0.1 OD450 nm,0.1 OD450 nm,0.14 OD450 nm,0.16 OD450 nm,0.13 OD450 nm
B17,0.11 OD450 nm,0.05 OD450 nm,0.05 OD450 nm,0.05 OD450 nm,0.05 OD450 nm,0.09 OD450 nm,0.34 OD450 nm
B18,0.06 OD450 nm,0.07 OD450 nm,0.11 OD450 nm,0.57 OD450 nm,0.98 OD450 nm,1.29 OD450 nm,0.68 OD450 nm
